Data reported in patent US12553037B2, “Engineered class 2, type V repressor systems” (Scribe Therapeutics Inc., priority 2021, dated 2026).

Legend:
HBEGF locus = type: cell-based, human; conditions: abundance of KRAB domain before vs after selection; 2 ng/mL diphtheria toxin for 48 hours; spacer 34.28; HEK293T
[1] = Editing assays comparing gRNA scaffolds 316 and 174

| Molecule | log2(fold change) (HBEGF locus) | performance in editing assays relative to gRNA scaffold 174 [1] |
| --- | --- | --- |
| DOMAIN_26749: KRAB domain derived from the king cobra, Ophiophagus hannah; SEQ ID NO: 57755 (protein, Ophiophagus hannah) STPVTFEDVVVYFTAAEWVHLTNWQRDFYQAVMMETYELVASVAGDGVPMAEDEEGGVERPVWQYIPRGKRRRKTPQPRAD | highest log2(fold change) | – |
| 316 scaffold: chimeric gRNA scaffold, SEQ ID NO: 59352, 89 nucleotides (nucleic acid, listed as RNA, further chemistry not given here) guide: ACUGGCGCUUCUAUCUGAUUACUCUGAGCGCCAUCACCAGCGACUAUGUCGUAGUGGGUAAAGCUCCCUCUUCGGAGGGAGCAUCAGAG | – | perform comparably or more favorably than gRNA scaffold 174 |
